Data from patent publication US20210147508A1 (ACCELERON PHARMA, published 2021).

T1: TGFβ3 (human, UniProt P10600 301-412)
T1 sequence (looked up): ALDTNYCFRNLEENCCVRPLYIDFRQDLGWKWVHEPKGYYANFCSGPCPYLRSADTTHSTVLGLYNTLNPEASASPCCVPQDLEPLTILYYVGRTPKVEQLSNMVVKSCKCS

T2: TGFβ2 (human, UniProt P61812 303-414)
T2 sequence (looked up): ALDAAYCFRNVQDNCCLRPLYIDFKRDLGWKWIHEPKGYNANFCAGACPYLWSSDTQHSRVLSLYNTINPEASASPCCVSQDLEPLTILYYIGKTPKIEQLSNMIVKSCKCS

B1: TGFβRIISHORT-Fc:ALK5-Fc heterodimer (Fc fusion)
chain 1: TIPPHVQKSVNNDMIVTDNNGAVKFPQLCKFCDVRFSTCDNQKSCMSNCSITSICEKPQEVCVAVWRKNDENITLETVCHDPKLPYHDFILEDAASPKCIMKEKKKPGETFFMCSCSSDECNDNIIFSEEYNTSNPDTGGGTHTCPPCPAPELLGGPSVFLFPPKPKDTLMISRTPEVTCVVVDVSHEDPEVKFNWYVDGVEVHNAKTKPREEQYNSTYRVVSVLTVLHQDWLNGKEYKCKVSNKALPAPIEKTISKAKGQPREPQVYTLPPSRKEMTKNQVSLTCLVKGFYPSDIAVEWESNGQPENNYKTTPPVLKSDGSFFLYSKLTVDKSRWQQGNVFSCSVMHEALHNHYTQKSLSLSPGK
chain 2: ALLPGATALQCFCHLCTKDNFTCVTDGLCFVSVTETTDKVIHNSMCIAEIDLIPRDRPFVCAPSSKTGSVTTTYCCNQDHCNKIELPTTVKSSPGLGPVETGGGTHTCPPCPAPELLGGPSVFLFPPKPKDTLMISRTPEVTCVVVDVSHEDPEVKFNWYVDGVEVHNAKTKPREEQYNSTYRVVSVLTVLHQDWLNGKEYKCKVSNKALPAPIEKTISKAKGQPREPQVYTLPPSREEMTKNQVSLTCLVKGFYPSDIAVEWESNGQPENNYDTTPPVLDSDGSFFLYSDLTVDKSRWQQGNVFSCSVMHEALHNHYTQKSLSLSPG
B2: TGFβRIILONG-Fc:ALK5-Fc heterodimer (Fc fusion)
chain 1: TIPPHVQKSDVEMEAQKDEIICPSCNRTAHPLRHINNDMIVTDNNGAVKFPQLCKFCDVRFSTCDNQKSCMSNCSITSICEKPQEVCVAVWRKNDENITLETVCHDPKLPYHDFILEDAASPKCIMKEKKKPGETFFMCSCSSDECNDNIIFSEEYNTSNPDTGGGTHTCPPCPAPELLGGPSVFLFPPKPKDTLMISRTPEVTCVVVDVSHEDPEVKFNWYVDGVEVHNAKTKPREEQYNSTYRVVSVLTVLHQDWLNGKEYKCKVSNKALPAPIEKTISKAKGQPREPQVYTLPPSRKEMTKNQVSLTCLVKGFYPSDIAVEWESNGQPENNYKTTPPVLKSDGSFFLYSKLTVDKSRWQQGNVFSCSVMHEALHNHYTQKSLSLSPGK
chain 2: B1 chain 2

How the values were obtained:
Test in all cases: cell-based or functional assay
TGFβ3 = target: T1, TGFβ3
TGFβ1 = TGFβ1 (human, UniProt P01137 279-390)
TGFβ2 = target: T2, TGFβ2

Sequence of TGFβ1 (P01137 279-390 limits assumed): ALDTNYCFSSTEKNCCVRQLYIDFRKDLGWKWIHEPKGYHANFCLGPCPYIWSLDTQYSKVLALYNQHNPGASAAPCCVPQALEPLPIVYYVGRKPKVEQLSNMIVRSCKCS

| Binder | IC50 (pM), inhibition of TGFβ3 (270 pg/mL), CAGA12-luciferase reporter in A549 cells (TGFβ3) [pM] | IC50 (pM), inhibition of TGFβ1 (640 pg/mL), CAGA12-luciferase reporter in A549 cells (TGFβ1) [pM] | IC50 (pM), inhibition of TGFβ2 (480 pg/mL), CAGA12-luciferase reporter in A549 cells (TGFβ2) [pM] |
| --- | --- | --- | --- |
| B1 | < 90 | < 350 | ~200 |
| B2 | 35 | 204 | 154 |
